Experiment [1] concerns chick Chorio-Allantoic Membrane (CAM). The experiment in a line: Ex ovo CAM angiogenesis assay. The experiment is classed as in vivo, chicken. Particulars: 3 μg on paper disk daily for four days from day 8; compared to PBS control. As for the experimental part: In this assay, in-vivo angiogenesis is assessed on live chick embryos grown in petri dishes. Fertilized eggs are cracked into a petri dish after a few (e.g. 3) days incubation at appropriate temperature (e.g. 37° C.) and humidity. In the following days, the embryos developed a vascular network, which can then easily be exposed to any treatment or combination of treatments, for example, via delivery onto absorbent disks placed on/about the developing vascular regions. Angiogenesis is scored by periodically (e.g. 1×/day, 2×/day, 1×/2 days, 1×/4 days, etc) counting the number of blood vessels around the disk.
Fertilized chicken eggs were incubated horizontally at 37° C. and humidity of 60-62% and cracked into Petri dishes at embryonic day 4. Incubation was continued under the same conditions. […] Treatment was given every day for four days, then, the number of blood vessels around the treated disks was counted.

For experiment [2], the target named is T1, actin (Oryctolagus cuniculus, UniProt P68135). The experiment in a line: Actin binding solid phase assay. Particulars: immobilized actin; 0-500 ng/100 μl well. As for the experimental part:
96-well plates (MaxiSorp® flat-bottom 96-well plate, Fisher Scientific Inc., Fair Lawn, N.J.) were coated with 500 ng actin in 100 μl carbonate-bicarbonate buffer (pH 9.5) for 1 h at 37° C. The plate was washed once with TBS and then blocked with 3% BSA in 200 μl TBS buffer at 37° C., for 1 h. Wells were then washed once with 250 μl TBS. trT2-49, trT2-49m or each of the 29 peptides were added at 1:2 dilutions in 100 μl TBS, starting from 500 ng/well, incubated for 1 h at 37° C. and then washed three times with TBS containing 0.1% Tween-20 (TBST). Each well was then treated with 100 μl rabbit anti-trT2-49 diluted 1:500 in TBS and incubated for 1 h at 37° C. The wells were washed three times with TBST and then incubated with 100 μl goat anti-rabbit IgG-HRP (Jackson ImmunoResearch, West Grove, Pa.) diluted 1:10,000 in TBS, for 1 h at 37° C. Wells were then washed twice with TBST, and once with TBS before 100 μl substrate (1-step Ultra TMB-ELISA, Pierce, Fisher Scientific Inc.) were added. Absorbance at 655 nm was measured 10 min thereafter using a Power Wave 200 Microplate Scanning Spectrophotometer (Bio-Tek Instrument, Winooski, Vt.). Affinity was evaluated by double reciprocal plotting.

Experiment [3] concerns the target T2, G-Actin from rabbit muscle (Oryctolagus cuniculus, UniProt P68135).
T2 construct: G-Actin from rabbit muscle; purchased Sigma-Aldrich, St Louis, Mo; host or cells: rabbit muscle (tissue-derived)
Put plainly: ELISA actin binding assay (solid-phase, immobilized actin). Particulars: immobilized G-actin 500 ng/well. On the procedure: Peptides corresponding to a variety of amino acid sequences in the region of human RNASET2 comprising helix 5 and helix 6 were synthesized and assayed for actin binding in an ELISA actin binding assay.
Solid-phase ELISA for RNASET2 peptide binding to immobilized actin was performed as modified from Mejean 1987 (Biochem. J. 244: 571-577) and Mejean 1992 (Eur. J Biochem. 209: 555-562). All steps were conducted at 37° C. Immuno-96 Microwell™ solid plates (Thermo Fisher Scientific, MA) coated with 500 ng/well of G-Actin from rabbit muscle (Sigma-Aldrich, St Louis, Mo.) in 100 ul of 0.05 M carbonate buffer, pH 9.5 (Sigma-Aldrich, Mo), incubated for 1 h and washed with 250 ul/well Tris Buffered Saline (TBS) (Sigma-Aldrich). The wells were blocked with 3% bovine serum albumin (BSA, Sigma-Aldrich) in 200 ul/well TBS for another 1 hour and washed with 250 ul/well TBS. […] After an additional wash with 250 ul/well TBS, 1-Step Ultra TMB-ELISA (TMB-3,3′,5,5′ Tetramethylbenzidine) (Thermo-Scientific) was added (100 ul/well) and after 15-25 min of incubation, the reaction was read at A650 using Infinite F50-TECAN ELISA READER (TECAN, Austria). […]
A general note: ELISA stands for enzyme-linked immunosorbent assay.

For experiment [4], the target named is T1, actin. Put plainly: Surface plasmon resonance (BIAcore) of actin binding. Particulars: actin on CM5 chip, 25° C. On the procedure: SPR was performed on a BIAcore 3000 instrument (BIAcore, Uppsala, Sweden). Actin was diluted in 100 mM CH3COONa pH 4.6 to a final concentration of 20 μg/ml (200 μl total) resulting in ˜1 ng immobilized actin on a CM5 BIAcore sensor chip (GE Healthcare Bio-Sciences AB) using the standard BIAcore amine coupling chemistry protocol. The CM5 chip allows four separate flow cells to be operated in the BIAcore 3000 instrument used in these experiments. Coupling is achieved by activating the surface of the sensor chips with equal volumes of 50 mM N-hydroxysuccimide (NHS)/200 mM Nethyl-N-(3-[…])-carboiimide (EDC) (BIAcore, AB, Uppsala, Sweden) to form activated carboxyl groups. An actin solution (15 μg/ml) was run over the chip for 5 min at a rate of 10 μl/min, allowing the amine groups on the protein to react with the activated esters. In the final stage of immobilization, the surface was blocked by 1M ethanol amine, pH 8.0. […] The association phase for protein or peptides binding to actin was followed for 4 min, and dissociation phases were monitored for 3 min. […] The response was monitored as a function of time (sensorgram) at 25° C. […]
On the technique in general: Surface plasmon resonance follows binding to a sensor surface in real time, without labels.

The subject of experiment [5] is HUVEC. Put plainly: HUVEC tube formation assay on Matrigel. In kind it is cell-based, human. Particulars: peptides at 2 μM, compared to Control. As for the experimental part:
FIGS. 6A-6D illustrate in-vitro inhibition of angiogenesis in the HUVEC model by T2 peptides. HUVEC cells plated on Matrigel™ were exposed to 2 μM of T2 peptides A103-Q159 (SEQ ID NO: 60), K108-K133 (SEQ ID NO: 57) or K108-L123 (SEQ ID NO: 67), in addition to 1 μg/ml of angiogenin or VEGF as the angiogenic agent, as indicated. Control wells received PBS. FIG. 6B-Results were assessed by imaging software, and quantified, and expressed relative to tube formation with angiogenin or VEGF alone (100%) Column 1=angiogenin, column 2=angiogenin+SEQ ID NO: 60, column 3=angiogenin+SEQ ID NO: 57, column 4=angiogenin+SEQ ID NO: 60, Column 5=VEGF, column 6=VEGF+SEQ ID NO: 60, column 7=VEGF+SEQ ID NO: 57, column 8=VEGF+SEQ ID NO: 60. FIGS. 6C and 6D illustrate the inhibitory effect of truncated human T2 polypeptide trT2-49m (SEQ ID NO: 129) on angiogenin and VEGF induced HUVEC tube formation. […]
HUVEC (CC-2519)(fresh or commercially provided) are maintained in M199 rrrediurn supplemented with 20% FCS, 1% glutamine, 1% antibiotic-antimycotic solution, ECGF, and heparin, plated in a 96-well plate (14×10^3 cells/well) previously coated with growth factor-depleted Matrigel™ (BD Biosciences), in M199 medium containing 5% FCS and 0.005% ECGF. […] Plates are incubated (overnight), photographed and the extent of tube formation (angiogenesis) assessed.

“Also recorded” adds a separate entry of the source.

B1: SEQ ID NO: 84: truncated RNASET2 polypeptide representing amino acids 49-232 of full length, native RNASET2 (protein)
chain: EGCNRSWPFNLEEIKDLLPEMRAYWPDVIHSFPNRSRFWKHEWEKHGTCAAQVDALNSQKKYFGRSLELYRELDLNSVLLKLGIKPSINYYQVADFKDALARVYGVIPKIQCLPPSQDEEVQTIGQIELCLTKQDQQLQNCTEPGEQPSPKQEVWLANGAAESRGLRVCEDGPVFYPPPKKTKH
As for B1, in experiment [1], the “inhibition of angiogenesis (number of blood vessels around disk)” value is recorded as “effective in inhibiting angiogenesis”. Further, the “actin binding in solid-phase assay” value in experiment [2] is “effective and concentration-dependent binding of actin”. Moreover, the “actin binding on ELISA” value in experiment [3] is on record as “effectively binds actin”. The “Ka × 10^3” value in experiment [4] is given as 1.71 ×10^3 1/Ms.

B2: SEQ ID NO: 129: truncated version of hRNASET2 (trT2-49) missing amino acids E120-V141, expressed in E. coli (protein)
chain: EGCNRSWPFNLEEIKDLLPEMRAYWPDVIHSFPNRSRFWKHEWEKHGTCAAQVDALNSQKKYFGRSLELYRADFKDALARVYGVIPKIQCLPPSQDEEVQTIGQIELCLTKQDQQLQNCTEPGEQPSPKQEVWLANGAAESRGLRVCEDGPVFYPPPKKTKH
Turning to B2, the “actin binding in solid-phase assay” value in experiment [2] is “bound actin in a concentration-dependent manner; also recorded: effective and concentration-dependent binding of actin”. For the same molecule, in experiment [5] (1 μg/ml VEGF), the “inhibition of VEGF-induced tube formation” value stood at 35%. Further, the “inhibition of angiogenin-induced tube formation” value in experiment [5] (1 μg/ml angiogenin) was 40%. For the same molecule, the “Ka × 10^3” value in experiment [4] is reported as 0.50 ×10^3 1/Ms.

These data come from patent publication US20160340659A1, “ACTIN BINDING PEPTIDES AND COMPOSITIONS COMPRISING SAME FOR INHIBITING ANGIOGENESIS AND TREATING MEDICAL CONDITIONS ASSOCIATED WITH SAME” (YISSUM RESEARCH AND DEVELOPMENT COMPANY OF THE HEBREW …, priority 2014, published 2016).
